Our source for the stoichiometry N values is publication PMC4427162.

One may read the stoichiometry N as a count of units in the complex or per binding partner.

The target of assay [1] is Leishmania major tubulin-binding cofactor A (Leishmania major Friedlin). Nature of the assay: SEC; calibrated Superdex 75 26/60 column, 50 mM Tris-HCl, 250 mM NaCl pH 7.5, no reducing agent.
The target is the same in assay [2]. Briefly: MALDI-TOF mass spectrometry; sample that was used for crystallization (the approx. 27 kDa gel-filtration peak).

On to “Leishmania major tubulin-binding cofactor A (natural protein)”, for which the stoichiometry N in assay [1] and in assay [2] was 2 throughout.
